Measured values as given in US20200276322A1 (ADMINISTRATORS OF THE TULANE EDUCATIONAL FUND, published 2020).
Square brackets hold non-standard residues; d marks the D form. Ends that are not written are not given here.

Target: GFP1-10 protein
Assay: cell-based or functional assay

Binder | split GFP assay, GFP fluorescence against Tat-GFP-11, 40 µM, 37 °C and 22 °C [fold] | split GFP assay, GFP fluorescence over background, 10 µM, 22 °C [fold] | split GFP assay, GFP fluorescence over background, 10 µM, 37 °C [fold]
G[dR][dK][dK][dR][dR][dQ][dR][dR][dR][dP][dP][dQ]RDHMVLHEYVNAAGIT [Tat(D)-GFP-11] | 2 | – | –
[dR][dK][dK][dR][dW][dF][dR][dR][dR][dR][dP][dK][dW][dK][dK]RDHMVLHEYVNAAGIT [CPP-1(D)-GFP-11] | – | 2.2 | 2.1
